Laboratory results taken from patent US7611711B2, “VEGFR-3 inhibitor materials and methods” (Vegenics Limited, priority 2001, dated 2009).
Ends that are not written are not given here. GST = glutathione-S-transferase

Molecular target: T1, VEGFR-3/EpoR chimera expressed on BaF3 cells (UniProt P14753+P35916)
T1 construct: expressed in transfected cells; host or cells: BaF3 (IL-3 dependent murine pro-B cells)
T1 sequence (P35916+P14753 with tags, fused parts or gaps): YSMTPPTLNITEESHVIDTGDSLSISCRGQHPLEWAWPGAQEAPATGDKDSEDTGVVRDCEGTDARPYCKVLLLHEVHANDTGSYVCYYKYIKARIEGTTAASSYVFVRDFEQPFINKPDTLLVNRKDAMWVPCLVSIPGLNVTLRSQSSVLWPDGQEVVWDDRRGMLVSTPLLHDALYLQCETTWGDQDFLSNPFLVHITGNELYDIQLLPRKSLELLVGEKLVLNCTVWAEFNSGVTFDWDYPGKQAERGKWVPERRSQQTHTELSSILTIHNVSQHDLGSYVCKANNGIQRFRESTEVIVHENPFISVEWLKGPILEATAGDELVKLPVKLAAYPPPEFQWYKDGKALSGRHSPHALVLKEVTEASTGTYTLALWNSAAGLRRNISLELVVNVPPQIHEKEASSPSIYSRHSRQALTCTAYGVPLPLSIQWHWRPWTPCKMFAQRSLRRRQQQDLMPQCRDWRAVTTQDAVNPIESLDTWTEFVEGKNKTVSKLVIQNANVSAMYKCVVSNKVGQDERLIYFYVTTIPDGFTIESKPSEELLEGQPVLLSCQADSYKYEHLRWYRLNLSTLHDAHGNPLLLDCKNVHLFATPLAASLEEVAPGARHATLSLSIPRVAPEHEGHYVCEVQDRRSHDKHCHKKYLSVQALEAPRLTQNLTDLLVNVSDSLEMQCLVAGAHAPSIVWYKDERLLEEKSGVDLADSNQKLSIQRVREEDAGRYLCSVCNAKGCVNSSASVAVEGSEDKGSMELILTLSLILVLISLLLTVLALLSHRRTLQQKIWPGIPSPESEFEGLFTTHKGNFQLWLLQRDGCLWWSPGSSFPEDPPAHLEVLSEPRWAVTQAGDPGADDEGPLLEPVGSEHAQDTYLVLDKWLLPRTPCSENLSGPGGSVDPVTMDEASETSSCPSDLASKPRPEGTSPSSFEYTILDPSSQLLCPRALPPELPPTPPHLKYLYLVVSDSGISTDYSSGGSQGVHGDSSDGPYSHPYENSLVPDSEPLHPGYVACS
Assay: Bioassay for VEGFR-3 stimulation: viability (MTT) of BaF3 cells expressing a VEGFR-3/EpoR chimera, supplied with VEGF-C
Assay type: cell-based
Description: For the viability assay, the IL-3 dependent BaF3 cells expressing a VEGFR-3/EpoR chimera (Aschen et al, Eur J Biochem. 267(9):2505-15, 2000) were seeded in 96 well microtiter plates at 15000 cells/well in triplicates in the absence of IL-3 but supplied with the lOOng/ml VEGF-C and a range of concentrations of the selected peptides fused with GST. Cells were cultured for 48 h, during which time the cells incubated in cell culture medium alone had died. The viability of the cells was determined by the MTT reagent, which was added at a concentration of 0.5 mg/ml. After 2 h an equal volume of cell lysis solution was added (10%SDS/10 mM HCl) and allowed to incubate overnight at 37° C. The absorbance was measured at 540 nm.
The effects of the peptides fused to GST on the growth of BaF3-R3/EpoR were assessed using the MTT assay as described above and are depicted in FIG. 1. In this experiment, GST- CGYWLTIWGC (SEQ ID NO: 35) fusion protein was used for the inhibition of VEGF-C binding to VEGFR-3 expressed on BaF3 cells. In this experiment, a 20 uM concentration of the fusion protein sufficed to inhibit the binding completely as measured by the MTT cell death assay.

Row | Substance | concentration that sufficed to inhibit VEGF-C binding to VEGFR-3 completely, as measured by the MTT cell death assay (GST fusion protein, BaF3-R3/EpoR cells, no IL-3, VEGF-C supplied, 48 h) [µM] | concentration sufficient to completely inhibit VEGF-C/D binding to VEGFR-3 expressed on BaF3 cells (GST fusion protein, BaF3 cells) [µM] | competition with VEGF-C binding to VEGFR-3 expressed on BaF3 cells (in words) (BaF3 cells expressing VEGFR-3)
1 | GST-CGYWLTIWGC: fusion protein of glutathione-S-transferase (GST) with peptide CGYWLTIWGC, produced in E. coli from pGEX-2T ({GST}-CGYWLTIWGC; cysteine pairing not given here; also: GST fusion, dimerising) | 20 | 20 | –
2 | CGYWLTIWGC (isolated peptide) | – | – | competes with VEGF-C binding to VEGFR-3
